Source: article PMC12947862, “Oligomerization enables the selective targeting of an intrinsically disordered region by a small molecule” (Science Advances, 2026)

B1: AR AD fragment transactivation unit 5 (Tau-5*; residues 330 to 448) [human (from the printed UniProt entry)] / itself (parent)
chain: AAGSSGTLELPSTLSLYKSGALDEAAAYQSRDYYNFPLALAGPPPPPPPPHPHARIKLENPLDYGSAWAAAAAQCRYGDLASLHGAGAAGPGSGSPSAAASSSWHTLFTAEEGQLYGPC

Variants of: B1
Experiment: 2D 1H-15N NMR, concentration-dependent CSPs (self-association)
Conditions: with itself; protein concentration from 25 to 400 μM; read off a plot

Variant	response [p.p.m.]
chain 1 A69P	0.005
chain 1 L107P	0.0065
chain 1 C75Y	0.019

The remaining lines, values ahead:

response [p.p.m.]	Variant
0.013	chain 1 G78A
0.02	chain 1 G65A S66A G78A
0.0068	chain 1 W104A H105A F108A
